From publication doi:10.1101/2025.01.28.635353, “DyAb: sequence-based antibody design and property prediction in a low-data regime” (bioRxiv, 2025) come the findings set out here.

The assay deals with T1, EGFR (Homo sapiens, isoform 1 (assumed), UniProt P00533).
T1 construct: EGFR, the target antigen injected in SPR
The experiment in a line: SPR; antibody captured on a Protein A chip, target antigen injected 5 min, dissociation 10 min at 30 µL/min; multi-cycle mode; 37 degC; HBS-EP+ (10 mM Hepes pH 7.4, 150 mM NaCl, 0.3 mM EDTA, 0.05% Surfactant P20); 1:1 Langmuir fit; absolute affinities of the leads are medians across all experimental rounds. The conditions noted are these: both partners purified. A general note: In SPR one partner is held on a chip, and binding of the other changes the refractive index at the surface.

The term Kd denotes the concentration at which binding is half-saturated.

B1: anti-EGFR lead (antibody, V domains shown)
VH: EVKLQQSGDETMRPGASVRMSCKAYGYTFTDYSVHWIRQRPGQGLEWIGIIIPLIDTTRYNQKFKGKAVLTADTSSDTAYMELSRLTFEDSAVYYCARSYGSSGDDWFAYWGQGTLVTVSS
VL: DTVLTQSPALSVSPGERVDISCRASESVSTLLHWYQQKPGQQPTLLISLASSLESGVPARFSGSGSGTDFTLTIDPVEADDTAIYYCQESWNEPYAFGAGTKLELK
notes: the Fab of this antibody was crystallised and deposited as PDB 9MU1 (heavy chain); the Fab of this antibody was crystallised and deposited as PDB 9MU1 (light chain); The methods tell the production (Expi293, purified) only of the DyAb designs; The Fab for the crystal was made in CHO cells; also called aEGFR lead; starting point lead candidate
In turn, B1 yielded a Kd of 3 nM.

B2: aEGFR-R1-1 (antibody, V domains shown)
VH: EVKLQQSGDETMRPGASVRMSCKAYGYTFTDYSMHWIRQRPGQGLEWIGIIIPLIDTTRYNQKFKGKATLTADTSSDTAYMELSRLTFEDSAVYYCARSYDPSGDDWFAYWGQGTLVTVSS
VL: DTVLTQSPALSVSPGERVDISCRASESVSTLLHWYQQKPGQQPTLLISLASSLESGVPARFSGSGSGTDFTLTIDPVEADDTAIYYCQESWNEPYAFGAGTKLELK
notes: the Fab was crystallised and deposited as PDB 9MSW (heavy chain); as the heavy chain of m1 with four mutations across CDR-H1, CDR-H3 and the framework (Kabat numbering); the Fab was crystallised and deposited as PDB 9MSW (light chain); The Fab for the crystal was made in CHO cells; also called R1-1 design; DyAb design aEGFR-R1-1; source: Expi293, transiently expressed, purified from supernatant
As to B2, the binding result is on record as “binds”.
